± gives the uncertainty stated by the source.

The series in a line: self-splicing fitness, log relative to wild type (ln ratio); higher = more splicing; Tetrahymena group I intron in knt gene, E. coli kanamycin selection, DiMSum; sequences stand for … in CUCUCU…GGAGGGAAAAGUUAUCAGGCAUGCACCUGGUAGCUAGUCUUUAAACCAAUAGAUUGCAUCGGUUUAAAAGGCAAGACCGUCAAAUUGCGGGAAAGGGGUCAACAGCCGUUCAGUACCAAGUCUCAGGGGAAACUUUGAGAUGGCCUUGCAAAGGGUAUGGUAAUAAGCUGACGGACAUGGUCCUAACCACGCAGCCAAGUCCUAAGUCAACAGAUCUUCUGUUGAUAUGGAUGCAGUUCACAGACUAAAUGUCGGUCGGGGAAGAUGUAUUCUUCUCAUAAGAUAUAGUCGGACCUCUCCUUAAUGGGAGCUAGCGGAUGAAGUGAUGCAACACUGGAGCCGCUGGGAACUAAUUUGUAUGCGAAAGUAUAUUGAUUAGUUUUGGAGUACUCGUGGUCG
In short, it runs like this: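 The eight P1ex-region nucleotides of an intron in the knt kanamycin-resistance gene on pET-22b(+) were all randomised and the library put into E. coli BL21(DE3). Six replicate transformations were grown overnight at 37°C or 30°C on LB agar with or without 25 μg/mL kanamycin, together with 100 μg/mL carbenicillin, 50 μM IPTG and 0.2% rhamnose. Colonies were pooled and amplicon-sequenced on an Illumina HiSeq 2500. Fitness from DiMSum is the error-weighted combination of wild-type-normalised replicate fold changes, kanamycin over none.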

In the case of CACUAGCAAUAUUACGGUUG, the “self-splicing fitness (ln)” value (30 °C) was -1.98 ± 0.087 and the “self-splicing fitness (ln)” value (37 °C) is -1.38 ± 0.098.

For CUAUAGCAAUAUUACGAAGA, the “self-splicing fitness (ln)” value (30 °C) is -3.01 ± 0.25.

UGGUAGCAAUAUUACGGUGC: where the note is “30 °C”, the “self-splicing fitness (ln)” value is -2.31 ± 0.34.

With AGUGAGCAAUAUUACGGUCA, the “self-splicing fitness (ln)” value (30 °C) is -2.16 ± 0.19 and the “self-splicing fitness (ln)” value (37 °C) is -0.354 ± 0.19.

On to CUCUAGCAAUAUUACGUGAC, for which the “self-splicing fitness (ln)” value (30 °C) was -4.2 ± 0.26 and the “self-splicing fitness (ln)” value (37 °C) is -1.68 ± 0.17.

In the case of UGACAGCAAUAUUACGGCAG, the “self-splicing fitness (ln)” value reads like this: (30 °C) -0.0451 ± 0.065; (37 °C) 0.0375 ± 0.079.

As for ACGAAGCAAUAUUACGGCAG, the “self-splicing fitness (ln)” value (30 °C) is -2.17 ± 0.13 and the “self-splicing fitness (ln)” value (37 °C) was -1.58 ± 0.14.

Consider GUUUAGCAAUAUUACGUGGA, for which the “self-splicing fitness (ln)” value by setting is: (30 °C) -2.48 ± 0.21; (37 °C) -2.89 ± 0.29.

Take GGGUAGCAAUAUUACGUUUC: the “self-splicing fitness (ln)” value (30 °C) was -2.16 ± 0.12 and the “self-splicing fitness (ln)” value (37 °C) was -0.68 ± 0.15.

Consider UUAUAGCAAUAUUACGCGUU, for which the “self-splicing fitness (ln)” value (30 °C) was -3.58 ± 0.16 and the “self-splicing fitness (ln)” value (37 °C) is -2.16 ± 0.17.

For GCGGAGCAAUAUUACGGGUA, the “self-splicing fitness (ln)” value (30 °C) was -4.43 ± 0.42 and the “self-splicing fitness (ln)” value (37 °C) is -1.72 ± 0.2.

Take UUGGAGCAAUAUUACGUAAU: the “self-splicing fitness (ln)” value is -3.28 ± 0.19 (30 °C) and -2.38 ± 0.31 (37 °C).

On to CAACAGCAAUAUUACGAGGG, for which the “self-splicing fitness (ln)” value was -2.38 ± 0.073 (30 °C) and -2.2 ± 0.094 (37 °C).

On to ACUGAGCAAUAUUACGACGA, for which the “self-splicing fitness (ln)” value is -1.3 ± 0.13 (30 °C) and -0.569 ± 0.12 (37 °C).

Regarding GCGGAGCAAUAUUACGGGAA, the “self-splicing fitness (ln)” value is, setting by setting: (30 °C) -2.13 ± 0.27; (37 °C) -2.23 ± 0.35.

Turning to UGUAAGCAAUAUUACGCCCU, the “self-splicing fitness (ln)” value is, setting by setting: (30 °C) -0.237 ± 0.19; (37 °C) -0.575 ± 0.24.

Take GACGAGCAAUAUUACGGGGA: the “self-splicing fitness (ln)” value is, setting by setting: (30 °C) -3.12 ± 0.22; (37 °C) -2.37 ± 0.29.

As to CCAGAGCAAUAUUACGGGUG, the “self-splicing fitness (ln)” value is -1.52 ± 0.072 (30 °C) and -0.654 ± 0.096 (37 °C).

On to UCUUAGCAAUAUUACGUAGA, for which the “self-splicing fitness (ln)” value was -1.15 ± 0.21 (30 °C) and -0.474 ± 0.18 (37 °C).

Consider CUAUAGCAAUAUUACGUCGG, for which the “self-splicing fitness (ln)” value is -1.97 ± 0.2 (30 °C) and -1.33 ± 0.2 (37 °C).

Consider UUACAGCAAUAUUACGAGGC, for which, for the setting “37 °C”, the “self-splicing fitness (ln)” value was -1.85 ± 0.3.

Turning to UGGCAGCAAUAUUACGUCGC, the “self-splicing fitness (ln)” value is, setting by setting: (30 °C) -3.89 ± 0.31; (37 °C) -2.95 ± 0.43.

Take GCUUAGCAAUAUUACGUUCC: the “self-splicing fitness (ln)” value runs as follows: (30 °C) -0.313 ± 0.19; (37 °C) -0.542 ± 0.23.

For the sequence CAAGAGCAAUAUUACGAAUA, the “self-splicing fitness (ln)” value runs as follows: (30 °C) -2.52 ± 0.34; (37 °C) -2.28 ± 0.36.

On to GAUCAGCAAUAUUACGCCCU, for which the “self-splicing fitness (ln)” value reads like this: (30 °C) -0.299 ± 0.069; (37 °C) 0.418 ± 0.084.

On to AAUUAGCAAUAUUACGUGGC, for which the “self-splicing fitness (ln)” value by setting is: (30 °C) -3.39 ± 0.2; (37 °C) -1.96 ± 0.24.

Take CGGAAGCAAUAUUACGGGGA: the “self-splicing fitness (ln)” value (30 °C) is -3.79 ± 0.26 and the “self-splicing fitness (ln)” value (37 °C) was -2.65 ± 0.31.

Take UCUGAGCAAUAUUACGUUCA: the “self-splicing fitness (ln)” value was -2.84 ± 0.18 (30 °C) and -2.87 ± 0.28 (37 °C).

Consider AUGUAGCAAUAUUACGCAUG, for which the “self-splicing fitness (ln)” value runs as follows: (30 °C) -1.38 ± 0.095; (37 °C) -0.413 ± 0.12.

On to GGGAAGCAAUAUUACGCGGA, for which the “self-splicing fitness (ln)” value reads like this: (30 °C) -2.82 ± 0.23; (37 °C) -1.44 ± 0.18.

Consider AUGUAGCAAUAUUACGCUAU, for which the “self-splicing fitness (ln)” value runs as follows: (30 °C) -3.81 ± 0.23; (37 °C) -2.6 ± 0.23.

Regarding GUGUAGCAAUAUUACGGCCG, the “self-splicing fitness (ln)” value (30 °C) is -0.432 ± 0.22 and the “self-splicing fitness (ln)” value (37 °C) is -0.71 ± 0.34.

UAGUAGCAAUAUUACGCUUG: the “self-splicing fitness (ln)” value was -0.659 ± 0.092 (30 °C) and -0.506 ± 0.13 (37 °C).

With UGUGAGCAAUAUUACGAGCG, the “self-splicing fitness (ln)” value runs as follows: (30 °C) -1.29 ± 0.12; (37 °C) -0.066 ± 0.12.

With CGGUAGCAAUAUUACGACGG, the “self-splicing fitness (ln)” value (30 °C) is -0.359 ± 0.081 and the “self-splicing fitness (ln)” value (37 °C) came to 0.071 ± 0.12.

For the sequence UCAGAGCAAUAUUACGUGCA, the “self-splicing fitness (ln)” value is -2.3 ± 0.16 (30 °C) and -2.1 ± 0.18 (37 °C).

Regarding AUAUAGCAAUAUUACGAUAC, the “self-splicing fitness (ln)” value by setting is: (30 °C) -1.66 ± 0.35; (37 °C) -0.756 ± 0.26.

For the sequence CGUUAGCAAUAUUACGAGUG, the “self-splicing fitness (ln)” value runs as follows: (30 °C) -1.18 ± 0.078; (37 °C) 0.184 ± 0.094.

With UCGAAGCAAUAUUACGAGCU, the “self-splicing fitness (ln)” value by setting is: (30 °C) -3.7 ± 0.47; (37 °C) -1.24 ± 0.39.

The values are drawn from the supplement of paper PMC7877785.
